According to publication PMC3777832:

Molecular target: xenopus Lgr4 ectodomain (residues 24-455) (xenopus)
Experiment: SEC + other: dynamic light scattering

stoichiometry N: 2
Substance: xenopus Lgr4 ectodomain (residues 24-455) (domain or fragment)
